Substitutions are numbered along the chain they refer to. Numbers in names are those of the source. Each block holds one binder with its values, some of them ahead of it.
How the values were obtained:
[1] = target: pre-existing anti-drug antibodies (ADA) present in human sera; experiment: pre-existing ADA ELISA, scFv coated, human sera unspiked vs spiked
[2] = target: T1, human a-PD-L1 Fc (Sino Biological, 10084-H02H, LC11NO2402) (human, UniProt Q9NZQ7 19-239); experiment: SPR, PD-L1 Fc immobilised, scFv analyte, 1:1 fit
T1 construct: Bought Fc fusion immobilised on the SPR chip; Printed as 'a-PD-L1 Fc' but used as the antigen (ligand) for the anti-PD-L1 scFvs; also called Human PD-L1; not shown: Fc part
T1 sequence (Q9NZQ7 19-239 limits assumed): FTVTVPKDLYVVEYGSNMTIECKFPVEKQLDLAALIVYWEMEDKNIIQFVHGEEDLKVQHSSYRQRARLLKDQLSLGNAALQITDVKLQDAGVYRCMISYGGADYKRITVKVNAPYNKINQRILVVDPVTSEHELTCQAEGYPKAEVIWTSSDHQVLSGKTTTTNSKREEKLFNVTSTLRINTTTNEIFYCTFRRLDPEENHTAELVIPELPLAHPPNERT
Protocol: The mutation variants were then injected at concentrations of 10 nM, 2 nM and 0.4 nM over the ligand-immobilized and reference spots. The wild type variants were used as a control, while an empty spot was used as reference.
After each cycle with analyte, the surface was regenerated with a 3M MgCl₂ solution, thereby allowing the next analyte cycle to have only free ligand available. Binding affinity KD was globally calculated by the Bruker SPR software based on the binding association (kₒₙ) and dissociation (Koff) rate, by fitting a 1:1 Langmuir model to the curves obtained by the cycles with the three different concentrations of the analyte.

B1: PRO2230 (scFv 37-20-B03-sc09.1) (scFv)
scFv: DIQMTQSPASLSASVGDRVTITCQASQSIGTYLAWYQQKPGKPPKLLIYRAFILASGVPSRFSGSGSGTDFTLTISSLQPEDFATYYCQSNFYSDSTTIGPNAFGTGTKVTVLGGGGGSGGGGSGGGGSGGGGSEVQLVESGGGLVQPGGSLRLSCAASGFSFNSDYWIYWVRQAPGKGLEWIASIYGGSSGNTQYASWAQGRFTISRDNSKNTVYLQMNSLRAEDTAVYFCARGYVDYGGATDLWGQGTLVTVSS
notes: also called PRO2230 wt; a-PD-L1 wt
Mean No of serum samples >30% inhibition (30% CCP) with SCP (serum samples) [1]: 9
No of serum samples >30% inhibition (30% CCP) without SCP (serum samples) [1]: 18
Kd [2]: 0.049 nM
n-fold to wt [2]: 1 fold

B2: PRO2950 (scFv 37-20-B03-sc09.1_(T146Q)) (scFv)
scFv: B1 scFv with T253Q
notes: PRO2230 variant; VH substitution, AHo numbering; also called PRO2230 T146Q
Mean No of serum samples >30% inhibition (30% CCP) with SCP (serum samples) [1]: 4
No of serum samples >30% inhibition (30% CCP) without SCP (serum samples) [1]: 4
Kd [2]: 0.064 nM
n-fold to wt [2]: 1.3 fold

B3: PRO2948 (scFv 37-20-B03-sc09.1_(T146R)) (scFv)
scFv: B1 scFv with T253R
notes: PRO2230 variant; VH substitution, AHo numbering; also called PRO2230 T146R
Mean No of serum samples >30% inhibition (30% CCP) with SCP (serum samples) [1]: 1
No of serum samples >30% inhibition (30% CCP) without SCP (serum samples) [1]: 0
Kd [2]: 0.064 nM
n-fold to wt [2]: 1.3 fold

B5: PRO2913 (scFv 37-20-B03-sc09.1_(T101S, T146Q)) (scFv)
scFv: B1 scFv with T227S, T253Q
notes: PRO2230 variant; VH substitutions, AHo numbering; also called PRO2230 T101S-T146Q
Mean No of serum samples >30% inhibition (30% CCP) with SCP (serum samples) [1]: 3
No of serum samples >30% inhibition (30% CCP) without SCP (serum samples) [1]: 2
Kd [2]: 0.058 nM
n-fold to wt [2]: 1.2 fold

B9: PRO2935 (scFv 37-20-B03-sc09.1_(L144A, S148N)) (scFv)
scFv: B1 scFv with L251A, S255N
notes: PRO2230 variant; VH substitutions, AHo numbering; also called PRO2230 L144A-S148N
Mean No of serum samples >30% inhibition (30% CCP) with SCP (serum samples) [1]: 8
No of serum samples >30% inhibition (30% CCP) without SCP (serum samples) [1]: 8
Kd [2]: 0.091 nM
n-fold to wt [2]: 1.9 fold

More lines, now with the values ahead:

Mean No of serum samples >30% inhibition (30% CCP) with SCP (serum samples) [1]: 1
No of serum samples >30% inhibition (30% CCP) without SCP (serum samples) [1]: 2
Kd [2]: 0.041 nM
n-fold to wt [2]: 0.8 fold
B4: PRO2947 (scFv 37-20-B03-sc09.1_(T146K)) (scFv)
scFv: B1 scFv with T253K
notes: PRO2230 variant; VH substitution, AHo numbering; also called PRO2230 T146K

Mean No of serum samples >30% inhibition (30% CCP) with SCP (serum samples) [1]: 1
No of serum samples >30% inhibition (30% CCP) without SCP (serum samples) [1]: 0
Kd [2]: 0.045 nM
n-fold to wt [2]: 0.9 fold
B6: PRO2933 (scFv 37-20-B03-sc09.1_(L144K, T146E, S148K)) (scFv)
scFv: B1 scFv with L251K, T253E, S255K
notes: PRO2230 variant; VH substitutions, AHo numbering; also called PRO2230 L144K-T146E-S148K

Mean No of serum samples >30% inhibition (30% CCP) with SCP (serum samples) [1]: 5
No of serum samples >30% inhibition (30% CCP) without SCP (serum samples) [1]: 5
Kd [2]: 0.025 nM
n-fold to wt [2]: 0.5 fold
B7: PRO2914 (scFv 37-20-B03-sc09.1_(T101S, L144A, T146Q)) (scFv)
scFv: B1 scFv with T227S, L251A, T253Q
notes: PRO2230 variant; VH substitutions, AHo numbering; also called PRO2230 T101S-L144A-T146Q

Mean No of serum samples >30% inhibition (30% CCP) with SCP (serum samples) [1]: 1
No of serum samples >30% inhibition (30% CCP) without SCP (serum samples) [1]: 2
Kd [2]: 0.056 nM
n-fold to wt [2]: 1.1 fold
B8: PRO2949 (scFv 37-20-B03-sc09.1_(T146E)) (scFv)
scFv: B1 scFv with T253E
notes: PRO2230 variant; VH substitution, AHo numbering; also called PRO2230 T146E

Mean No of serum samples >30% inhibition (30% CCP) with SCP (serum samples) [1]: 2
No of serum samples >30% inhibition (30% CCP) without SCP (serum samples) [1]: 1
Kd [2]: 0.05 nM
n-fold to wt [2]: 1 fold
B10: PRO2915 (scFv 37-20-B03-sc09.1_(L12A, T101S, L144A, T146Q)) (scFv)
scFv: B1 scFv with L145A, T227S, L251A, T253Q
notes: PRO2230 variant; VH substitutions, AHo numbering; also called PRO2230 L12A-T101S-L144A-T146Q

Mean No of serum samples >30% inhibition (30% CCP) with SCP (serum samples) [1]: 2
No of serum samples >30% inhibition (30% CCP) without SCP (serum samples) [1]: 2
Kd [2]: 0.018 nM
n-fold to wt [2]: 0.4 fold
B11: PRO2934 (scFv 37-20-B03-sc09.1_(L144K, S148L)) (scFv)
scFv: B1 scFv with L251K, S255L
notes: PRO2230 variant; VH substitutions, AHo numbering; also called PRO2230 L144K-S148L

Mean No of serum samples >30% inhibition (30% CCP) with SCP (serum samples) [1]: 5
No of serum samples >30% inhibition (30% CCP) without SCP (serum samples) [1]: 5
Kd [2]: 0.053 nM
n-fold to wt [2]: 1.1 fold
B12: PRO2903 (scFv 37-20-B03-sc09.1_(L12R, V103T, L144Q)) (scFv)
scFv: B1 scFv with L145R, V229T, L251Q
notes: VH substitutions, AHo numbering; also called PRO2230-L12R-V103T-L144Q
